Values of other authors as cited in patent US20150246140A1, “COMPOSITIONS AND METHODS FOR MODULATING SLEEP AND WAKEFULNESS” (California Institute of Technology, priority 2014, published 2015).

What was measured:
NPR-22 = target: T1, NPR-22 (Caenorhabditis elegans, UniProt Q59E83); settings: FLP-13 peptides P1-P9, FIG. 6 legend
T1 sequence (Q59E83 1-434): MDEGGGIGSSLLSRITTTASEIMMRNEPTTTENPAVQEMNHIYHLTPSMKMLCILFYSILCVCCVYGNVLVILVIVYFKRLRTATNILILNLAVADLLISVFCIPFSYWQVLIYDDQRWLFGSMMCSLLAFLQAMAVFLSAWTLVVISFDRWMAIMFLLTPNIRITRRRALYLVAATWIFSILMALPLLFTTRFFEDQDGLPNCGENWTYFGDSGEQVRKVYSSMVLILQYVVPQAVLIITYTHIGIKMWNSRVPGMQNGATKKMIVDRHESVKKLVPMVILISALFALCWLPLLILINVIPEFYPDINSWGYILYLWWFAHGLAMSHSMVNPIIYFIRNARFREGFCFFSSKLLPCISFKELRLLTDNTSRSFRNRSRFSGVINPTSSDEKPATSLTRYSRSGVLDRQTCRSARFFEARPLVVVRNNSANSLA

A. suum muscle strips = settings: FLP-13 peptides P1-P9, FIG. 6 legend

Sequence	activate calcium response via NPR-22 using the fluorescence assay (NPR-22)	effect on A. suum muscle strips (A. suum muscle strips)
AADGAPLIRF [C. elegans RFamide peptide of gene flp-13; P2 and P4 are repeated copies]	can activate calcium response	inhibitory effects
SPSAVPLIRF [C. elegans RFamide peptide of gene flp-13]	can activate calcium response	excitatory effect
SAAAPLIRF [C. elegans RFamide peptide of gene flp-13]	can activate calcium response	
ASPSAPLIRF [C. elegans RFamide peptide of gene flp-13]	can activate calcium response	
ASSAPLIRF [C. elegans RFamide peptide of gene flp-13]	can activate calcium response	
APEASPLIRF [C. elegans RFamide peptide of gene flp-13; P3 and P5 are repeated copies]		inhibitory effects
